# Primed or numbered codes have the meaning given here. Where no end group is shown, it is not given here. [ ]: non-standard residue; d: D form. The star is where a group is joined. Biotin = O=C1N[C@H]2[C@H](CS[C@H]2CCCCC(=O)*)N1; Lys(Me3) = C[N+](C)(C)CCCC[C@H](N)C(=O)O; PEG4′ = not defined here
# Experiments:
# Nectin-2 = molecular target: T1, Nectin-2 (human, UniProt Q92692 32-538); assay: cell microarray on HEK293 cells, pooled compounds
# T1 construct: whole, on cells; Plasma membrane, non-tethered secreted and tethered secreted forms in the library
# T1 sequence (looked up): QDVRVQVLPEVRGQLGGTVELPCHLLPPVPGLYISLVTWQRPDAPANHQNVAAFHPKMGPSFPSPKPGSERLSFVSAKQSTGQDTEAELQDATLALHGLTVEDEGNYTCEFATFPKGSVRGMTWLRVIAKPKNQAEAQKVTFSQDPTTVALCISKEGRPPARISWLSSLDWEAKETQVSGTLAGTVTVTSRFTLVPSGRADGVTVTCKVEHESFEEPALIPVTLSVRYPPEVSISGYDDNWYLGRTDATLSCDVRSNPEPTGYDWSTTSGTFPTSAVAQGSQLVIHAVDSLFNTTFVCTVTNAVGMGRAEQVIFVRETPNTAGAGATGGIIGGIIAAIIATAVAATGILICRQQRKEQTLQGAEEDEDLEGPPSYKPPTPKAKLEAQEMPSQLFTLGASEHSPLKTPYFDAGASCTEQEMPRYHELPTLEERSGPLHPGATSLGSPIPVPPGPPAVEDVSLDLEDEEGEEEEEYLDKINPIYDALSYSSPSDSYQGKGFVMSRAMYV
# Method: (§1) Initially, two pools of compounds were tested. […] To perform this assay, HEK293 cells were plated on a dish and localized spots of cells were transiently over-expressed with a single cDNA encoding for GFP and one of the 6,416 targets. Included in this library were multiple clones for the Nectin family members, including plasma membrane, non-tethered secreted, and tethered secreted forms of Nectin-1, 2, 3, and 4. Secreted protein targets were tethered to the plasma membrane to aid in detection. The molecule pools were incubated on the fixed, over-expressing cell microarrays (n=2 per protein), and binding was visualized using Alexa Fluor 647 streptavidin fluorescence.
# Nectin-1 = molecular target: T2, Nectin-1 (human, UniProt Q15223 31-517); assay: cell microarray on HEK293 cells, pooled compounds
# T2 construct: whole, on cells; Plasma membrane, non-tethered secreted and tethered secreted forms in the library
# T2 sequence (looked up): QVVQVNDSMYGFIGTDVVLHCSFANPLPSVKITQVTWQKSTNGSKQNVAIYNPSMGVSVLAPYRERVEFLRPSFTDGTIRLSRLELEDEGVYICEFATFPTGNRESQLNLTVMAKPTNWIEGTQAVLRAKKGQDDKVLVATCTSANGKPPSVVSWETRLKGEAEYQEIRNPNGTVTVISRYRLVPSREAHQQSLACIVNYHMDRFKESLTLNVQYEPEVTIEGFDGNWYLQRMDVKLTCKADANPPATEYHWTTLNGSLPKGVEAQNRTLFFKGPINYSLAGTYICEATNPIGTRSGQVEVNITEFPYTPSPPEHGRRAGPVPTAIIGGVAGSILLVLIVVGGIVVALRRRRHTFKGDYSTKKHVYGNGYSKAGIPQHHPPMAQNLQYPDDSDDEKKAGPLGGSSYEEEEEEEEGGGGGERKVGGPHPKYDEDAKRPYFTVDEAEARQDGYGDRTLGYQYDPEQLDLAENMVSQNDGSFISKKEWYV
# Method: as §1
# [1] = molecular target: T3, Human Nectin-4 expressed on cells (human, UniProt Q96NY8 32-510); assay: DELFIA competition against 10 nM C307, HT-1376 cells
# T3 construct: Endogenous on HT-1376 cells; also called endogenous Nectin-4 on HT-1376 cells; cell surface Nectin-4
# T3 sequence: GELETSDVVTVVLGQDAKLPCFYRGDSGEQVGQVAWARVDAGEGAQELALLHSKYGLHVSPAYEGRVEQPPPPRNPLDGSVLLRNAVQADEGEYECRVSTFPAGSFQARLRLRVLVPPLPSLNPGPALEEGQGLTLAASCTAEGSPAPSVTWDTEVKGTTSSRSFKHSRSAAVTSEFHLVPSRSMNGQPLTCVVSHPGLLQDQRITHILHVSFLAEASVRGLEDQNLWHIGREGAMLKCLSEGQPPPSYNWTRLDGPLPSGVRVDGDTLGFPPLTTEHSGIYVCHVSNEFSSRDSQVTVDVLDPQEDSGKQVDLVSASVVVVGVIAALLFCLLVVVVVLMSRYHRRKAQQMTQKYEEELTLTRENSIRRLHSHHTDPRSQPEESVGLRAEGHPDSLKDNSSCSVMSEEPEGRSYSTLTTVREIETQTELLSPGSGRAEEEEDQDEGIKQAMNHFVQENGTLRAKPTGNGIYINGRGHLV
# Method: (§2) A competition binding assay was utilized to determine the Kᵢ for miniproteins bound to Nectin-4 expressed on the surface of cancer cells. […] Miniprotein incubations occurred for 90 min to reach binding equilibrium. […] After miniprotein incubations, the wells were washed to remove unbound ligand and treated according to manufacturer instructions for a DELFIA® (dissociation-enhanced lanthanide fluorescent immunoassay, Revvity Health Sciences). In brief, washed wells were incubated with 15 μL of 2 M HCl for 2 h at 37° C., after which 17 μL of 2 M NaOH and 30 μL of DELFIA® enhancement solution were added to each well and incubated for an additional 30 min. The remaining Eu reacted with the DELFIA® enhancer solution to generate fluorescence measured on the Envision instrument. Relative fluorescence units (RFUs) were measured as a function of test article concentration in order to calculate an IC50. The Ki can then be calculated using the Cheng-Prusoff equation for converting a measured IC50 to Ki: […]
# [2] = molecular target: T3, Human Nectin-4 expressed on cells; assay: flow cytometry dose response, biotinylated C253 detected with Strep-PE, Delta MFI = C253 MFI minus vehicle MFI, HT-1376-P cells
# Method: Fluorescent imaging for Nectin-4 binding was conducted using assays as described in Example 3. Briefly, Nectin-4 knockout HT-1376 cells were generated via CRISPR/Cas9 mediated gene deletion followed by single cell cloning. […] Flow cytometry was performed to measure on-target binding to cell surface Nectin-4. […]
# [3] = molecular target: T3, Human Nectin-4 expressed on cells; assay: competition binding assay (DELFIA, fluorescence at 615 nm) on HT-1376 cells: 12 concentrations of C253 against 10 nM Eu-labelled C307 as the displaced tracer
# Method: as §2
Binder,binding result (Nectin-2),binding result (Nectin-1),Ki [1] [nM],EC50 (read off the curve) [2] [nM],IC50 (read off the curve) [3] [nM]
"{Biotin-PEG4′}-CEYDEEFFTALARLRGGDICQYIQA[Lys(Me3)]FQYLPALCIEEILDNLGCS (designed binder, cysteine pairing not given here) [C253]",no binding (tested: 2 µg/mL),no binding (tested: 2 µg/mL),0.82,~0.8,~2
"{Biotin-PEG4′}-CDYDEQFFTALKRLRGADICEYIQASFQYLPGECIEEILDNLGCS (designed binder, cysteine pairing not given here) [C208]",no binding (tested: 2 µg/mL),no binding (tested: 2 µg/mL),–,–,–
"{Biotin-PEG4′}-CDYDEQFFTALKRLRGGDICEYIQASFQYLPGLCIEEILDNLGCS (designed binder, cysteine pairing not given here) [C190]",no binding (tested: 2 µg/mL),no binding (tested: 2 µg/mL),–,–,–
"{Biotin-PEG4′}-CEYDEQFFTALKRLRGDDICDYIQASFQYLPGLCIEEILDNLGCS (designed binder, cysteine pairing not given here) [C197]",no binding (tested: 2 µg/mL),no binding (tested: 2 µg/mL),–,–,–
"{Biotin-PEG4′}-CDYDEQFFTALARLRGADICEYIQASFQYLPGECIEEILDNLGCS (designed binder, cysteine pairing not given here) [C247]",no binding (tested: 2 µg/mL),no binding (tested: 2 µg/mL),–,–,–
